Data on 19 substances can be found in publication PMC6056499, “A systematic dissection of sequence elements determining β-Klotho and FGF interaction and signaling” (Scientific Reports, 2018).

In one assay the target is mature human FGF21 (UniProt Q9NSA1). Description: solid-phase binding assay. The note with it: β-Klotho captured from conditioned media; parent: est. 1.0; read off a plot.
The target of assay [1] is human β-Klotho extracellular domain (aa1–992) fused with a 6 × His tag at the C-terminus (UniProt Q86Z14). Description: AlphaScreen. The note with it: parent: est. 1.0, read off a plot. (Alpha assays give light when donor and acceptor beads are brought close together.)
The mark [2] stands for this setting: competition with FGF19 for β-Klotho.
Setting [3] is: competition with FGF21 for β-Klotho.

Sequence of human β-Klotho extracellular domain (aa1–992) fused with a 6 × His tag at the C-terminus (Q86Z14 53-992): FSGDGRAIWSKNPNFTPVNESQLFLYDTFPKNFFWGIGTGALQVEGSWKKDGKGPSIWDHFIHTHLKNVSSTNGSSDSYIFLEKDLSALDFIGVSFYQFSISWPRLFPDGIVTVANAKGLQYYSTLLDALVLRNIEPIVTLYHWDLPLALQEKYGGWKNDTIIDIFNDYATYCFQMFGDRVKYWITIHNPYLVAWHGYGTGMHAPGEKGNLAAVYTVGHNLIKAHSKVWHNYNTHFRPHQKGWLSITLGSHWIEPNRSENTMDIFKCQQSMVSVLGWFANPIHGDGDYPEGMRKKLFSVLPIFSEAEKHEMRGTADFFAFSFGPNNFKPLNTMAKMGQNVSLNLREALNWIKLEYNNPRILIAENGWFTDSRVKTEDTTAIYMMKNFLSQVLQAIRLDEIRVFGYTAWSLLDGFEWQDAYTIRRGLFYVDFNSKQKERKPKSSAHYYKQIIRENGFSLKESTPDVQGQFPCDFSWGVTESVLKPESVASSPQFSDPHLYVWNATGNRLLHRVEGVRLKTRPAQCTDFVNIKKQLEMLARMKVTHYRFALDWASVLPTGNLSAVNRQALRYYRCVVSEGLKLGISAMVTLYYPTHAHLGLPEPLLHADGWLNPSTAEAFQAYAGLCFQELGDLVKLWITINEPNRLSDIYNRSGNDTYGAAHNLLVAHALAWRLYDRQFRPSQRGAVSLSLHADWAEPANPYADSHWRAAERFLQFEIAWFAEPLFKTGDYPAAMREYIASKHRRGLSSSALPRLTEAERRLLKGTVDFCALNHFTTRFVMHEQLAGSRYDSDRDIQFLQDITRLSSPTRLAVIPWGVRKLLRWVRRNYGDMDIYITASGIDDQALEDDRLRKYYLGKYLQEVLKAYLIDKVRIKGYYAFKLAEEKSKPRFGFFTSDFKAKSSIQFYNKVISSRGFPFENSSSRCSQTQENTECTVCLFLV
Sequence of FGF19 C-terminal peptide, WT FGF19^185–216 (from UniProt O95750) 194T-A (O95750 185-216, change not shown): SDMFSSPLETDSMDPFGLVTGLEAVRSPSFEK
Sequence of FGF19 C-terminal peptide, WT FGF19^185–216 (from UniProt O95750) 215E-A (O95750 185-216, change not shown): as above
Sequence of FGF19 C-terminal peptide, WT FGF19^185–216 (from UniProt O95750) 191P-A (O95750 185-216, change not shown): as above
Sequence of FGF19 C-terminal peptide, WT FGF19^185–216 (from UniProt O95750) 207E-A (O95750 185-216, change not shown): as above
Sequence of FGF19 C-terminal peptide, WT FGF19^185–216 (from UniProt O95750) 205G-A (O95750 185-216, change not shown): as above
Sequence of FGF19 C-terminal peptide, WT FGF19^185–216 (from UniProt O95750) 210R-A (O95750 185-216, change not shown): as above
Sequence of FGF19 C-terminal peptide, WT FGF19^185–216 (from UniProt O95750) 214F-A (O95750 185-216, change not shown): as above

“human β-Klotho extracellular domain (aa1–992) fused with a 6 × His tag at the C-terminus (from UniProt Q86Z14) 381P-R”: the ratio to parent in the assay with mature human FGF21 amounted to 21.

Turning to “human β-Klotho extracellular domain (aa1–992) fused with a 6 × His tag at the C-terminus (from UniProt Q86Z14) 389G-R”, the ratio to parent with mature human FGF21 turned out to be 3.5.

On to “human β-Klotho extracellular domain (aa1–992) fused with a 6 × His tag at the C-terminus (from UniProt Q86Z14) 861R-A”, for which the ratio to parent in the assay with mature human FGF21 was 15.

Take “human β-Klotho extracellular domain (aa1–992) fused with a 6 × His tag at the C-terminus (from UniProt Q86Z14) 862L-R”: the ratio to parent with mature human FGF21 came to 25.

For “human β-Klotho extracellular domain (aa1–992) fused with a 6 × His tag at the C-terminus (from UniProt Q86Z14) 531E-A”, in the assay with mature human FGF21, the ratio to parent is 4.5.

For “human β-Klotho extracellular domain (aa1–992) fused with a 6 × His tag at the C-terminus (from UniProt Q86Z14) 389G-A”, the ratio to parent in the assay with mature human FGF21 was found to be 30.

For “human β-Klotho extracellular domain (aa1–992) fused with a 6 × His tag at the C-terminus (from UniProt Q86Z14) 437K-A”, the ratio to parent in the assay with mature human FGF21 worked out at 270.

As to “human β-Klotho extracellular domain (aa1–992) fused with a 6 × His tag at the C-terminus (from UniProt Q86Z14) 437K-R”, in the assay with mature human FGF21, the ratio to parent came to 5.

With “human β-Klotho extracellular domain (aa1–992) fused with a 6 × His tag at the C-terminus (from UniProt Q86Z14) 380K-A”, the ratio to parent in the assay with mature human FGF21 turned out to be 35.

For the substance “human β-Klotho extracellular domain (aa1–992) fused with a 6 × His tag at the C-terminus (from UniProt Q86Z14) 381P-A”, the ratio to parent with mature human FGF21 amounted to 5.

“human β-Klotho extracellular domain (aa1–992) fused with a 6 × His tag at the C-terminus (from UniProt Q86Z14) 431T-R”: the ratio to parent with mature human FGF21 was 10.

Turning to “FGF19 C-terminal peptide, WT FGF19^185–216 (from UniProt O95750) 191P-A”, the figures for the ratio to parent in assay [1] (setting [2]) and in assay [1] (setting [3]) were 0.8 and 0.5, respectively.

Turning to “FGF19 C-terminal peptide, WT FGF19^185–216 (from UniProt O95750) 207E-A”, the values for the ratio to parent in assay [1] (setting [2]) and in assay [1] (setting [3]) were 0.6 and 1.1, respectively.

“FGF19 C-terminal peptide, WT FGF19^185–216 (from UniProt O95750) 215E-A”: the ratio to parent was found to be 7 in assay [1] (setting [2]) and 5.2 in assay [1] (setting [3]).

On to “FGF19 C-terminal peptide, WT FGF19^185–216 (from UniProt O95750) 194T-A”, for which the figures for the ratio to parent in assay [1] (setting [2]) and in assay [1] (setting [3]) were 2.1 and 1.4, respectively.

For the substance “FGF19 C-terminal peptide, WT FGF19^185–216 (from UniProt O95750) 210R-A”, the ratio to parent is 1.2 in assay [1] (setting [2]) and 1.4 in assay [1] (setting [3]).

For “human β-Klotho extracellular domain (aa1–992) fused with a 6 × His tag at the C-terminus (from UniProt Q86Z14) 862L-A”, the ratio to parent with mature human FGF21 turned out to be 6.

As for “FGF19 C-terminal peptide, WT FGF19^185–216 (from UniProt O95750) 205G-A”, the ratio to parent came to 1.3 in assay [1] (setting [2]) and 1.4 in assay [1] (setting [3]).

As for “FGF19 C-terminal peptide, WT FGF19^185–216 (from UniProt O95750) 214F-A”, the ratio to parent in assay [1] (setting [2]) was 220.
